Publication PMC4889941, “Flexibility of KorA, a plasmid-encoded, global transcription regulator, in the presence and the absence of its operator” (Nucleic Acids Research, 2016)

Target: the molecule itself
Experiment: SAXS; free KorA at 2.5, 5 and 10 mg/ml in 20 mM Tris-HCl pH 7.0, 100 mM NaCl, 1 mM EDTA, 293K; confirmed by SEC-SAXS (Superdex 200 Increase, 4 mg/ml); mass from I0 against bovine serum albumin

B1: KorA repressor from the IncP1 plasmid RK2 (natural protein)
chain: MKKRLTESQFQEAIQGLEVGQQTIEIARGVLVDGKPQATFATSLGLTRGAVSQAVHRVWAAFEDKNLPEGYARVTAVLPEHQAYIVRKWEADAKKKQETKR
notes: KorA, global transcription repressor encoded by the IncP1 plasmid RK2; 13C/15N-labelled protein was used for NMR; also called free KorA; KorA dimer
stoichiometry N: 2
